First the molecules themselves.
B1: Spirochaeta thermophila YeeE [Spirochaeta thermophila] / Spirochaeta thermophila YeeD (WT), His6-tagged [Spirochaeta thermophila] (parent complex)
chain 1: MIWTGLLVGFLFGIVLQRGRICFNSAFRDVLLFKDNYLFKLAVFTLALEMILFVLLSQVGLMQMNPKPLNLVGNIIGGFVFGLGMVLAGGCASGVTYRVGEGLTTAWFAALFYGLGAYATKSGAFSWWLSWVGQFKSPLSVEESAYYVKGAGPTISSVLGLNPWIPALVIAALFILWAFGTKTTSRETKFNWKIASVCLALVAGLGFITSTLSGRKYGLGITGGWINLFQGFLTNSPLNWEGLEIVGIILGAGVAAAVAGEFKLRMPKNPVTYLQVGIGGLLMGIGAVTAGGCNIGHFLTGVPQLALSSWLASIFFILGNWTMAWILF
chain 2: MANYQVSKEIDVRGEVCPIPDVEAKRAVQSANDGEIILVRIDYPLSKERIPETVKKLGSEVLEIEEAAPGEWNIYIKVKK

In this assay the parent is B1. Kind of assay: BLI; Octet buffer (20 mM Tris-HCl (pH 8.0), 300 mM NaCl, 0.1% (w/v) DDM, 1 mM β-ME); response at 120 s; parent: 1.8; read off a plot. In general terms: BLI is a label-free optical method that tracks binding on a fibre tip over time.
Consider chain 2 MANYQVSKEIDVRGEVCPIPDVEAKRAVQSANDGEIILVRIAYPLSKERIPETVKKLGSEVLEIEEAAPGEWNIYIKVKK [chain 2 D42A], for which the response is about 0.04 nm.
The value for chain 2 MANYQVSKEIDVRGEVAPIPDVEAKRAVQSANDGEIILVRIDYPLSKERIPETVKKLGSEVLEIEEAAPGEWNIYIKVKK [chain 2 C17A] was about 0.14 nm.

The record behind these values is publication PMC11073785, “YeeD is an essential partner for YeeE-mediated thiosulfate uptake in bacteria and regulates thiosulfate ion decomposition” (PLOS Biology, 2024).
